Data published in patent US20260069726A1, “ZWITTERIONIC COMPOUNDS AND USES THEREOF” (priority 2022, published 2026).

Tests used:
[1] = assay type: physicochemical; conditions: pH 7.4
Method: The lipophilicity of each one of the [^68Ga]Ga-DOTA-TATEs were assessed as described in the literature. In brief, two phases of 1-octanol and phosphate buffer (PBS) at a pH of 7.4 were presaturated with each other. The presaturated 1-octanol (3.0 mL) was added to 3.0 mL of presaturated PBS that had about 0.3 MBq of labelled [^68Ga]Ga-DOTA-TATEs. The mixture was vortexed for 1.0 minute at room temperature then centrifuged for 1.0 minute at 3000 RPM. 1.0 mL of each phase was taken and measured its activity in automated gamma counter. Log D7.4 was determined for at least three experiments using Equation 1 below, where CPM (count per minute) is the reading from the gamma counter.

[2] = assay type: in vitro ADME, mouse
Method: (§1) Serum stability was determined using a previously published method. Aliquots of each one of the [^68Ga]Ga-DOTA-TATEs (5.0 MBq) were added to 0.4 mL human or mice serum and incubated at 37° C. Aliquots (20 μL) were taken at various time intervals (10, 30, 60, 90, 120 minutes) and quenched in ice-cold acetonitrile. The samples were centrifuged, and the supernatants were diluted further with deionized water and were analyzed by radio-HPLC (a flow rate 0.65 mL/min with a gradient of CH3CN:H2O with 0.1% TFA in both). 5.0 MBq of [^68Ga]Ga-DOTA-TATEs were prepared in 0.4 mL of PBS and used as a reference in the radio-HPLC measurement for the stability in serum study.

[3] = assay type: in vitro ADME, human
Method: as §1

[4] = assay type: in vitro ADME; conditions: plasma
Method: Serum binding assay for each one of [^68Ga]Ga-DOTA-TATEs were carried out as described in the literature. Compendiously, labelled [^68Ga]Ga-DOTA-TATEs (4-3 MBq) were added to freshly prepared 0.1 mL of anticoagulated human or mice plasma and the mixtures were incubated for 120 minutes at 37° C. This was followed by addition of 1.0 mL ice-cold acetonitrile and centrifuged for 2 minutes at 3000 RPM. The addition of acetonitrile had been repeated two times and all supernatants (denoted as A) were combined and the total radioactivity was measured using automated gamma counter. The radioactivity of the precipitate (B) was measured as well. The plasma-protein binding rate was calculated using Equation 2 below (n=3).

in vivo = conditions: male, NOD-SCID gamma (NSG), mouse, in vivo, iv, total radioactivity
Method: (§2) The experimental protocol was approved by the University of Saskatchewan Committee on Animal Care and procedures were performed in accordance with the guidelines of the Canadian Council on Animal Care and the Canadian Nuclear Safety Commission. Aliquots of about 200 μL of each one of [^68Ga]Ga-DOTA-TATEs (7-5 MBq with <10% EtOH) were loaded to 0.5 mL syringes and >96% Radiochemical yields (RCY) were confirmed by using radio-HPLC followed by injection to healthy CD1 female mice and xenograft bearing male NOD-SCID gamma mice (USASK colony F1 005557, strain NOD.Cg-PrkdcscidIl2rg) (n=4), via tail vein catheter while in the PET scanner with image acquisition started, under anesthesia (2.5% isoflurane in O2, at a flow rate of 2 mL/min). 90-minute dynamic images of all four mice were collected simultaneously on the Sofie GNEXT PET/CT small animal imaging system using the included 4-mouse heated bed. The mice were euthanized (by cervical dislocation while they were under the effect of anesthesia) at 2 hrs post injection and blood and specific organs were harvested, weighed, and residual activity in the organs were measured by using an automated gamma counter. All images were reconstructed using VivoQuant® 2020 software (patch 1 64 bit, build vq-2020patch1-0-ga8255affc).
(§3) As done for healthy mouse studies, animals were awakened for 30 minutes following PET/CT and then euthanized at 2 hours post injection. Tissue/organ samples were collected, weighed, and the amount of activity present in the samples was measured using an automated gamma counter.

[5] = tested on: AR42J (SSTR2 over-expressing) subcutaneous tumors; assay: Ex vivo biodistribution in xenograft mice two hours post injection; conditions: for tumor uptake compared with the other compounds: AR42J tumor bearing mice; for tumor uptake compared with the other compounds / tumor uptake, biodistribution / tumor-to-kidney ratio: 2 hours post injection; for tumor uptake, biodistribution / tumor-to-kidney ratio: male AR42J tumor bearing mice; for pharmacokinetic of healthy-tissue clearance (words, figure legend) / tumor-tissue ratios (words, figure legend): mouse, in vivo
Method: as §2, §3

[6] = parameters: species or system healthy CD1 mice; conditions: mouse, in vivo
Method: Experiments were performed in healthy female mice (CD1) to determine the behavior and distribution of these compounds (pharmacokinetics). Mice were catheterized via tail vein and injected while in the scanner, and dynamic PET-CT imaging was performed from time 0 until 1.5 hours post injection (n=4 each group, 4 mice in the scanner simultaneously).

[7] = parameters: species or system healthy CD1 mice; conditions: mouse, in vivo; remark: listed apart in the source
Method: After imaging was complete, the mice were kept awake for an additional 30 minutes before being euthanized, bringing the total period of the injection to 2 hours. Biodistribution was performed by removing and weighing individual tissues and organs, and then measuring the activity of [^68Ga]Ga^3+ inside each sample using an automated gamma counter.

[8] = tested on: AR42J (SSTR2 over-expressing) subcutaneous tumors; assay: Dynamic PET/CT imaging (0-90 minutes) in tumor-bearing mice; conditions: male NSG mice bearing AR42J tumors
Method: as §2

SMILES	logD [1]	MSS % (2 hrs.) = Mouse Serum Stability [2] [%]	HSS % (2 hrs.) = Human Serum Stability [3] [%]	fraction unbound at 120 min [4]	tissue uptake at 2 h (in vivo) [%ID/g]	tumor uptake compared with the other compounds ([5]; listed as Lys(ZW) derivative)	tumor uptake compared with the other compounds ([5]; listed as [^68Ga]Ga-DOTA-Lys(ZW)-PEG4-TATE)	tumor uptake, biodistribution [5] [% ID/g]	tumor-to-kidney ratio [5]	pharmacokinetic of healthy-tissue clearance (words, figure legend) [5]	tumor-tissue ratios (words, figure legend) [5]	tumor uptake compared with the other compounds [5]	fraction unbound [4]	start of excretion / renal elimination into the bladder [6] [minutes post injection]	renal uptake, biodistribution [7] [D/g %]	kidney accumulation, retention and clearance seen in dynamic PET/CT [8]
C[C@@H](O)[C@H](NC(=O)[C@@H]1CSSC[C@H](NC(=O)[C@@H](Cc2ccccc2)NC(=O)CCOCCOCCOCCOCCNC(=O)[C@H](CCCC[N+](C)(C)CCCS(=O)(=O)[O-])NC(=O)CN2CCN(CC(=O)O)CCN(CC(=O)O)CCN(CC(=O)O)CC2)C(=O)N[C@@H](Cc2ccc(O)cc2)C(=O)N[C@H](Cc2c[nH]c3ccccc23)C(=O)N[C@@H](CCCCN)C(=O)N[C@@H]([C@@H](C)O)C(=O)N1)C(=O)O [DOTA-(ZW1)-PEG4-TATE]	-3.39 ± 0.19	100	100	0.534	32.9 ± 19.8	greater tumor uptake	highest	20.6±2.5	0.63	faster	improved					
C[C@@H](O)[C@H](NC(=O)[C@@H]1CSSC[C@H](NC(=O)[C@@H](Cc2ccccc2)NC(=O)CCOCCOCCOCCOCCNC(=O)[C@H](CCCC[N+](C)(C)CCCS(=O)(=O)[O-])NC(=O)[C@H](CCCC[N+](C)(C)CCCS(=O)(=O)[O-])NC(=O)CN2CCN(CC(=O)O)CCN(CC(=O)O)CCN(CC(=O)O)CC2)C(=O)N[C@@H](Cc2ccc(O)cc2)C(=O)N[C@H](Cc2c[nH]c3ccccc23)C(=O)N[C@@H](CCCCN)C(=O)N[C@@H]([C@@H](C)O)C(=O)N1)C(=O)O [DOTA-(ZW2)-PEG4-TATE]	-3.36 ± 0.18	100	100	0.515						faster	improved	reduced tumor uptake				
C[C@@H](O)[C@H](NC(=O)[C@@H]1CSSC[C@H](NC(=O)[C@@H](Cc2ccccc2)NC(=O)CCOCCOCCOCCOCCNC(=O)[C@@H](Cc2ccc[n+](CCCS(=O)(=O)[O-])c2)NC(=O)CN2CCN(CC(=O)O)CCN(CC(=O)O)CCN(CC(=O)O)CC2)C(=O)N[C@@H](Cc2ccc(O)cc2)C(=O)N[C@H](Cc2c[nH]c3ccccc23)C(=O)N[C@@H](CCCCN)C(=O)N[C@@H]([C@@H](C)O)C(=O)N1)C(=O)O [DOTA-Pyr(ZW)-PEG4-TATE]	-3.57	99.6 ± 0.1	100	0.575												
C[C@@H](O)[C@H](NC(=O)[C@@H]1CSSC[C@H](NC(=O)[C@@H](Cc2ccccc2)NC(=O)CN2CCN(CC(=O)O)CCN(CC(=O)O)CCN(CC(=O)O)CC2)C(=O)N[C@@H](Cc2ccc(O)cc2)C(=O)N[C@H](Cc2c[nH]c3ccccc23)C(=O)N[C@@H](CCCCN)C(=O)N[C@@H]([C@@H](C)O)C(=O)N1)C(=O)O [DOTA-TATE, DOTA-Tyr^3-octreotate, reference compound]	-2.81	100	100		38.8 ± 42.7			13.8±4.6	0.35				0.567	~70	~74±51	rapid accumulation and protracted retention
